Assay [1] addresses T1, 天然牛TNF-α (牛外周血单核细胞) (牛 (bovine)) (UniProt Q06599).
T1 sequence (looked up): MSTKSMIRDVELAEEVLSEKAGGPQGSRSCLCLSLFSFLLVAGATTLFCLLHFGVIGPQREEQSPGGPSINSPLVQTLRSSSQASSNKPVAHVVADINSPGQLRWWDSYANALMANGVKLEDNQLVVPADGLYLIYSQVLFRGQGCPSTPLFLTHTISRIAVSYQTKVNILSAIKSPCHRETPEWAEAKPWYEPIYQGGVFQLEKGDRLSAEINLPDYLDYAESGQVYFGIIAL
Kind of assay: intracellular flow cytometry, PMA/ionomycin-stimulated bovine PBMC, FITC-3C1 0.5μg/mL. For orientation: In flow cytometry, cells or beads pass a laser one at a time.

Assay [2] has as its target T1, 天然牛TNF-α (牛外周血单核细胞) (牛 (bovine)). Kind of assay: intracellular flow cytometry, unstimulated bovine PBMC (control well), FITC-3C1 0.5μg/mL.
The target in assay [3] is T2, 天然羊TNF-α (羊外周血单核细胞) (羊 (sheep)) (UniProt P23383).
T2 sequence (looked up): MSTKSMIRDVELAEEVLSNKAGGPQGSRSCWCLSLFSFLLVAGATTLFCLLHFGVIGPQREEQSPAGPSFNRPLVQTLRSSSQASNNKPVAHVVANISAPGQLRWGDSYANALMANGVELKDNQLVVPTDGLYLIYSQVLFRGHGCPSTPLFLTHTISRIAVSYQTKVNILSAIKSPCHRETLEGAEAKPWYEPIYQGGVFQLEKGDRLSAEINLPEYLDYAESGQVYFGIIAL
Kind of assay: intracellular flow cytometry, PMA/ionomycin-stimulated sheep PBMC, FITC-3C1 0.5μg/mL.

For assay [4], the target named is T3, rGST-BoTNF-α (pGEX-6p-1-BoTNF-α, E. coli BL21) (牛 (bovine)) (UniProt Q06599).
T3 sequence (looked up): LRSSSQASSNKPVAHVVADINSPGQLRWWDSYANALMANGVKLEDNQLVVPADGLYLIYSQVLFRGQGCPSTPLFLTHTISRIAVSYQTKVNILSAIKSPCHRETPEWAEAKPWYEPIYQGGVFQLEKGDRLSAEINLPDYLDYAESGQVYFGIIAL
Put plainly: indirect ELISA, rGST-BoTNF-α coated at 0.5μg/mL, serially diluted 3C1 ascites, cut-off P/N≥2.1.

The target in assay [5] is T4, rBoIL-2 (Kingfisher-Biotech公司, rp0026B-005) (UniProt P05016 21-155).
T4 construct: Commercial protein
T4 sequence (looked up): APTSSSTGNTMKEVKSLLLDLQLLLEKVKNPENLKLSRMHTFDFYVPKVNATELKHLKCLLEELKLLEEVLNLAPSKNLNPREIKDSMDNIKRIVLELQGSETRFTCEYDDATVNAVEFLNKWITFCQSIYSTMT
Put plainly: indirect ELISA, coated protein, 3C1 hybridoma supernatant.

Assay [6] addresses T5, rhuTNF-α (PeproTech, 300-01A-50) (UniProt P01375 77-233).
T5 construct: Commercial protein
The assay is described as above.

The target in assay [7] is T6, rBoIFN-γ (美国R&D公司, 2300-BG-02) (UniProt P07353 24-166).
T6 construct: Commercial protein; species read from the label Bo
T6 sequence (looked up): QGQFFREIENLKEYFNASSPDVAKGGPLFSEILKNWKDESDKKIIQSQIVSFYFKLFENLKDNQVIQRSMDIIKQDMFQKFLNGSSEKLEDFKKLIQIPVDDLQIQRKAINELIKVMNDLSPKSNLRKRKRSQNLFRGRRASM
The assay is described as above.

Assay [8] concerns the target T7, rPoTNF-α (美国R&D公司, 690-PT-025) (UniProt P23563 77-232).
T7 construct: Commercial protein
Described as above.

Assay [9] concerns the target T8, 商品化rBoTNF-α (美国R&D公司, 2279-BT-025) (牛 (bovine), UniProt Q06599 78-234).
T8 construct: Commercial protein
T8 sequence (looked up): T3 sequence (looked up)
Put plainly: indirect ELISA, protein coated at 0.5μg/mL, 3C1 hybridoma supernatant. On the technique in general: ELISA stands for enzyme-linked immunosorbent assay.

In assay [10] the target is T9, rHis-BoTNF-α (pET-30a(+)-BoTNF-α, E. coli BL21(DE3)) (牛 (bovine), UniProt Q06599 78-234).
T9 construct: Own construct; also called rHis-BoTNF-α纯化蛋白; not shown: N-terminal His tag and vector residues of pET-30a(+) up to the BamHI site
T9 sequence (looked up): T3 sequence (looked up)
Kind of assay: Western blot with HRP-3C1 1:1000.

Assay [11] has as its target T2, 天然羊TNF-α (羊外周血单核细胞) (羊 (sheep)). Kind of assay: intracellular flow cytometry, unstimulated sheep PBMC (control well), FITC-3C1 0.5μg/mL.

T7 sequence (P23563 77-232 limits assumed): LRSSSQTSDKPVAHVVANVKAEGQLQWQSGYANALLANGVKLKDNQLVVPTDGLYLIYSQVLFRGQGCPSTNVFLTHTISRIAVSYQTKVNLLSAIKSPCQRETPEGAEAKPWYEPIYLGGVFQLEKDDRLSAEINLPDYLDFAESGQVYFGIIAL
T5 sequence (P01375 77-233 limits assumed): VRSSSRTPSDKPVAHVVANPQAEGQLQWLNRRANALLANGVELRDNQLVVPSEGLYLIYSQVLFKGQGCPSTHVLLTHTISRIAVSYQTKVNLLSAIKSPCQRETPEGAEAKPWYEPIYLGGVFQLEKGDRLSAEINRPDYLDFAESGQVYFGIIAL

B1: 单克隆抗体3C1 (具牛、羊交叉反应的抗TNF-α单克隆抗体, 杂交瘤 CCTCC NO:C2019129) (antibody, V domains shown)
VH: QVQLKQSGPGLVQPSQSLSITCTVSGFSLTNFSVHWVRQPPGKGLEWLGVMWSGGSTDYNAAFISRLSIIKDNSKSQVFFKMNGLQADDTAIYYCARSGPYYYSLDYWGQGTSVTVSS
VL: DIQMTQSPASLSASVGETVTITCRASENIYIYLAWYQQKQGKSPQLLVYNAKTLAEGVPSRFSGSGSGTQFSLNINSLQPEDFGSYYCQHHYGTPWTFGGGTKLEIK
notes: Used as ascites, hybridoma supernatant, HRP-labelled (HRP-3C1) or FITC-labelled (FITC-3C1) antibody, depending on the assay; also called mAb 3C1; MAb 3C1
On to B1, for which the 分泌牛TNF-α细胞比例 (percent stained cells) turned out to be 18.4% in assay [1] and 0.051% in assay [2]. In addition, the 分泌羊TNF-α细胞比例 (percent stained cells) in assay [3] was 13.4%; in assay [11] it was 0.027%. Further, the 效价 (ascites titre) (dilution (1:x)) in assay [4] was 1.31e+07. The binding result is reported as “no binding (tested: 0.5μg/mL (coating))” in assay [5]; “no binding (tested: 0.5μg/mL (coating))” in assay [6]; “no binding (tested: 0.5μg/mL (coating))” in assay [7]; “no binding (tested: 0.5μg/mL (coating))” in assay [8]; “binds” in [9]; “binds” in assay [10].

These data come from patent CN110760483A (UNIV YANGZHOU, dated 2020).
